From PMC9463131, “SLITRK1-mediated noradrenergic projection suppression in the neonatal prefrontal cortex” (Communications Biology, 2022)

Key:
Test in all cases: BLI
[1] = target: T1, human Neurofascin ECD-His6 (8208-NF-050, R&D Systems) (human)
T1 chain: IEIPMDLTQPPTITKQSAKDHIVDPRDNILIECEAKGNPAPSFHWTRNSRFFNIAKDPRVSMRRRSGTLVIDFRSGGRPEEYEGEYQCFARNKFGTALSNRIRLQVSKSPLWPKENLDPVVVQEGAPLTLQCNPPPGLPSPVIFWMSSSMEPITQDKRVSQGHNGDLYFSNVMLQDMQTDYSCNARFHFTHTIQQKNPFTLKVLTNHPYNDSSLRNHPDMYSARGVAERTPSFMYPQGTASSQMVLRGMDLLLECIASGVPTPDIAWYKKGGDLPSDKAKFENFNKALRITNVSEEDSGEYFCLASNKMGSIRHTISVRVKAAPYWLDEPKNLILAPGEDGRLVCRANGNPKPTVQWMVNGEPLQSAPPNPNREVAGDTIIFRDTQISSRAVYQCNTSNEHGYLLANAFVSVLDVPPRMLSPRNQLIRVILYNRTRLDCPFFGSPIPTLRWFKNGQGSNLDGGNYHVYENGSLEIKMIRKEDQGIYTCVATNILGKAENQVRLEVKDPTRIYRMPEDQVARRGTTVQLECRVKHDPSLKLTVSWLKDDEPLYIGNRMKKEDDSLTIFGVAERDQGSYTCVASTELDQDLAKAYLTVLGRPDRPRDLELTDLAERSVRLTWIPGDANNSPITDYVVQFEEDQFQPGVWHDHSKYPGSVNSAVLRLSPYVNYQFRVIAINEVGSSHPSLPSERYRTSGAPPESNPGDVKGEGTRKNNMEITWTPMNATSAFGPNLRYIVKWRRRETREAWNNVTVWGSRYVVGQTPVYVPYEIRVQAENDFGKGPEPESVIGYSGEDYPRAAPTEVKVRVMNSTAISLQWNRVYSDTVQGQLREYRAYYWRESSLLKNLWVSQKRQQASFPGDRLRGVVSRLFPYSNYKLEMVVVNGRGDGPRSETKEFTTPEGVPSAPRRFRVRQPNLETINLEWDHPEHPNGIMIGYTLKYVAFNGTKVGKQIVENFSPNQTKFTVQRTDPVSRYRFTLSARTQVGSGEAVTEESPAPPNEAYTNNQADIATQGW

[2] = target: T2, L1CAM ECD-His6 (777-NC-100, R&D Systems) (UniProt P32004 20-1120)
T2 chain: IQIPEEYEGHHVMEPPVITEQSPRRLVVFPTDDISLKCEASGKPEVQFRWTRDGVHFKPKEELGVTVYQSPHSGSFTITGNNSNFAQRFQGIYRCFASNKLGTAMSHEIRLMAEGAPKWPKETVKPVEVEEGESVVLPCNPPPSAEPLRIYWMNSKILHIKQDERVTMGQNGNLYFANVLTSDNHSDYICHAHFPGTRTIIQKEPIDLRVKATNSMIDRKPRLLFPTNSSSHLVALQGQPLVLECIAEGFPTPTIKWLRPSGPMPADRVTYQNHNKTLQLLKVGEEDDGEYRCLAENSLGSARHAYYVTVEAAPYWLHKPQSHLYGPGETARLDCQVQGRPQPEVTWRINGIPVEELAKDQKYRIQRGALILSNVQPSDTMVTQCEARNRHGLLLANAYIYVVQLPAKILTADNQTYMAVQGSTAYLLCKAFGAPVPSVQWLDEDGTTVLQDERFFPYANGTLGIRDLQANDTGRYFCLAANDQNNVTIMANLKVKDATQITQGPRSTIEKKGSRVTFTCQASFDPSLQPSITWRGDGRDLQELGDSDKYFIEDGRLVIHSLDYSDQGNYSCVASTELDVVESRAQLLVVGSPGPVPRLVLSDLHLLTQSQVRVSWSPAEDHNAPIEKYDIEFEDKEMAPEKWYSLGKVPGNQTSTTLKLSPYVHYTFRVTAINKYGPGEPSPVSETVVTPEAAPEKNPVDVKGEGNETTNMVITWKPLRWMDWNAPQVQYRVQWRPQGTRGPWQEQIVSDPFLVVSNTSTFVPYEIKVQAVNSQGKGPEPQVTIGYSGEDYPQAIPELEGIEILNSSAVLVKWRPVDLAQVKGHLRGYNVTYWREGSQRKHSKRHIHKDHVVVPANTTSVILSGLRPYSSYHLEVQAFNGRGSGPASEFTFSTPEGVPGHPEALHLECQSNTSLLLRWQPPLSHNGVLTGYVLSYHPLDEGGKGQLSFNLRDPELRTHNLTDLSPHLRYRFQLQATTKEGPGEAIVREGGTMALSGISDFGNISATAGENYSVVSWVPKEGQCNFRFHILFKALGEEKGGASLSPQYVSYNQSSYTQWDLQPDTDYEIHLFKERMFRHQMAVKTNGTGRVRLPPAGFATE

[3] = target: T3, human PTPRD ECD-His6 (ACROBiosystems) (human, UniProt P23468 21-1265)
T3 chain: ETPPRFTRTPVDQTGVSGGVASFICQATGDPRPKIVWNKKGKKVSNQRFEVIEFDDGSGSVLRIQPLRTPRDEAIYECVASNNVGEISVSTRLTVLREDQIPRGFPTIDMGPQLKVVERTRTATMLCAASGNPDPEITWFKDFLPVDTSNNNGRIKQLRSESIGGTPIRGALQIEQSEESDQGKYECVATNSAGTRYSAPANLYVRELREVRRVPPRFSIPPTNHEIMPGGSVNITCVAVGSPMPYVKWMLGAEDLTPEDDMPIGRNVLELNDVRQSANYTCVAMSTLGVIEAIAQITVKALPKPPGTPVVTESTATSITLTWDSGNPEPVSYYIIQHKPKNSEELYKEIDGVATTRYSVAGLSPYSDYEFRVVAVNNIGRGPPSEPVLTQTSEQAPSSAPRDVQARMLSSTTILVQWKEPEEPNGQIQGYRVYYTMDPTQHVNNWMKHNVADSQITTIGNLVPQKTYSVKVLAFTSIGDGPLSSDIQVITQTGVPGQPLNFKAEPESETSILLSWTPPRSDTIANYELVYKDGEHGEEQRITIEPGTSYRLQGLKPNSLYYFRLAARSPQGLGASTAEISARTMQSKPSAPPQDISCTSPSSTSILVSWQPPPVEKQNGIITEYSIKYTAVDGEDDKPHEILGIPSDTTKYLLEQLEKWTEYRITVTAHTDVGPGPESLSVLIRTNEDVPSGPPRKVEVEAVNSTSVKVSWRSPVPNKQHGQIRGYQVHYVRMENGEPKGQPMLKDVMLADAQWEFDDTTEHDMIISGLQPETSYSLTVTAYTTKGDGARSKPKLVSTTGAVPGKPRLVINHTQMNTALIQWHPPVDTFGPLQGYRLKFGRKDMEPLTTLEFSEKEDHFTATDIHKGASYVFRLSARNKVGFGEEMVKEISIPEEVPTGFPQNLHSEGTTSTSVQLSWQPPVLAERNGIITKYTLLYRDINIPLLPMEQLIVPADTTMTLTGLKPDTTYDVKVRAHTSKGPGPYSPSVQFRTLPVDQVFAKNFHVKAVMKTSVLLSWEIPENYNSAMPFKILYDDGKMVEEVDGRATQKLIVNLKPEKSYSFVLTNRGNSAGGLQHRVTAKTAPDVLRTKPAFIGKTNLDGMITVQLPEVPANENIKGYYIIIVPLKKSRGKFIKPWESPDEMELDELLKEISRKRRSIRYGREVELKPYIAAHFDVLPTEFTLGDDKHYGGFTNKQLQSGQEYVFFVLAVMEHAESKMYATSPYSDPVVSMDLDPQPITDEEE

B1: SLITRK1 ECD-immunoglobulin Fc domain-fusion protein (SLITRK1-WT-Fc) (Fc fusion)
chain: NVTGDVCKEKICSCNEIEGDLHVDCEKKGFTSLQRFTAPTSQFYHLFLHGNSLTRLFPNEFANFYNAVSLHMENNGLHEIVPGAFLGLQLVKRLHINNNKIKSFRKQTFLGLDDLEYLQADFNLLRDIDPGAFQDLNKLEVLILNDNLISTLPANVFQYVPITHLDLRGNRLKTLPYEEVLEQIPGIAEILLEDNPWDCTCDLLSLKEWLENIPKNALIGRVVCEAPTRLQGKDLNETTEQDLCPLKNRVDSSLPAPPAQEETFAPGPLPTPFKTNGQEDHATPGSAPNGGTKIPGNWQIKIRPTAAIATGSSRNKPLANSLPCPGGCSCDHIPGSGLKMNCNNRNVSSLADLKPKLSNVQELFLRDNKIHSIRKSHFVDYKNLILLDLGNNNIATVENNTFKNLLDLRWLYMDSNYLDTLSREKFAGLQNLEYLNVEYNAIQLILPGTFNAMPKLRILILNNNLLRSLPVDVFAGVSLSKLSLHNNYFMYLPVAGVLDQLTSIIQIDLHGNPWECSCTIVPFKQWAERLGSEVLMSDLKCETPVNFFRKDFMLLSNDEICPQLYARISPTLTSHSKNSTGLAETGTHSNSYLDTSRVS
- koff [1]: 0.00256 s⁻¹
- koff [2]: 0.00088 s⁻¹
- koff [3]: 0.00351 s⁻¹
